In doi:10.1101/2020.12.04.20244186:

Target: c-KIT extracellular domain (soluble KIT) (UniProt P10721-2 26-516)
Test: square wave voltammetry

B1: Fc-labeled scrambled control oligo (Au/Fc-control) (ssDNA)
DNA: TGACGGGAGACTTAAAACGCAAGGGGTGCAGCTATCGCGGAGGCCAAGGGTTCAAGTCGACGGGTAGCTAGGTTGGA
modifications: 5'-disulfide (thiol after TCEP, on gold electrode); 3'-NH2 coupled to ferrocene carboxylic acid
Does B1 bind?
Result: no binding
